Common to all, as to experiment: intrinsic tryptophan fluorescence quenching
For one data set, the target named is T1, MAD53 (UniProt Q9TTA5).
T1 sequence (Q9TTA5 whole entry, looked up): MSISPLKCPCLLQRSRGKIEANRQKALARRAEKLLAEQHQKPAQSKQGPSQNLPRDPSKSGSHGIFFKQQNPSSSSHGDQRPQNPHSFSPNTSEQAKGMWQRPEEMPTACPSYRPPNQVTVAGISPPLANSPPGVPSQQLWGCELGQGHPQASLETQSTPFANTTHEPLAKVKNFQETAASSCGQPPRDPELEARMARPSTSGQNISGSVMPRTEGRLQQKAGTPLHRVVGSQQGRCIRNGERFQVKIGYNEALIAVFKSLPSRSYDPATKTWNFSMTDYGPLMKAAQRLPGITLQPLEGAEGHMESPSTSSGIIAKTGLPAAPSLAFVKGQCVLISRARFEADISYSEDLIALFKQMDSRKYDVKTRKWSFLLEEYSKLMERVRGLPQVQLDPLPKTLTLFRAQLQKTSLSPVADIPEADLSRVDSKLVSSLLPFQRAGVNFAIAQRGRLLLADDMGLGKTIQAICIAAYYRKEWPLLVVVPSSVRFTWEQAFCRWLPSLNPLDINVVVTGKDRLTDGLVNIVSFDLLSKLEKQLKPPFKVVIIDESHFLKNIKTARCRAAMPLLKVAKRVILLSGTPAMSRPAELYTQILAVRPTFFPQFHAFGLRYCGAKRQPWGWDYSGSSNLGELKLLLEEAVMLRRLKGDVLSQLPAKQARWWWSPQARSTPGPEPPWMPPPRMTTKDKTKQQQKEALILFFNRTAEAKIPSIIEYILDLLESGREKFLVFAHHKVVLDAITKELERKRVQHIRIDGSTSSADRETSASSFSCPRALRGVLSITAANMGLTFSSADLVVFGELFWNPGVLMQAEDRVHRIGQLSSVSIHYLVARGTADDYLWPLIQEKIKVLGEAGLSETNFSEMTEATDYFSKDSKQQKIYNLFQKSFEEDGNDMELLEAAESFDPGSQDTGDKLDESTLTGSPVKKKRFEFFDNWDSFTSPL
Conditions: Fluorescence at 25 C (Cary-Varian spectrofluorimeter); buffer, salt and pH not given (as in ref 13).

The target in a further data set is T2, MAD47 (UniProt Q9TTA5).
T2 sequence (Q9TTA5 whole entry, looked up): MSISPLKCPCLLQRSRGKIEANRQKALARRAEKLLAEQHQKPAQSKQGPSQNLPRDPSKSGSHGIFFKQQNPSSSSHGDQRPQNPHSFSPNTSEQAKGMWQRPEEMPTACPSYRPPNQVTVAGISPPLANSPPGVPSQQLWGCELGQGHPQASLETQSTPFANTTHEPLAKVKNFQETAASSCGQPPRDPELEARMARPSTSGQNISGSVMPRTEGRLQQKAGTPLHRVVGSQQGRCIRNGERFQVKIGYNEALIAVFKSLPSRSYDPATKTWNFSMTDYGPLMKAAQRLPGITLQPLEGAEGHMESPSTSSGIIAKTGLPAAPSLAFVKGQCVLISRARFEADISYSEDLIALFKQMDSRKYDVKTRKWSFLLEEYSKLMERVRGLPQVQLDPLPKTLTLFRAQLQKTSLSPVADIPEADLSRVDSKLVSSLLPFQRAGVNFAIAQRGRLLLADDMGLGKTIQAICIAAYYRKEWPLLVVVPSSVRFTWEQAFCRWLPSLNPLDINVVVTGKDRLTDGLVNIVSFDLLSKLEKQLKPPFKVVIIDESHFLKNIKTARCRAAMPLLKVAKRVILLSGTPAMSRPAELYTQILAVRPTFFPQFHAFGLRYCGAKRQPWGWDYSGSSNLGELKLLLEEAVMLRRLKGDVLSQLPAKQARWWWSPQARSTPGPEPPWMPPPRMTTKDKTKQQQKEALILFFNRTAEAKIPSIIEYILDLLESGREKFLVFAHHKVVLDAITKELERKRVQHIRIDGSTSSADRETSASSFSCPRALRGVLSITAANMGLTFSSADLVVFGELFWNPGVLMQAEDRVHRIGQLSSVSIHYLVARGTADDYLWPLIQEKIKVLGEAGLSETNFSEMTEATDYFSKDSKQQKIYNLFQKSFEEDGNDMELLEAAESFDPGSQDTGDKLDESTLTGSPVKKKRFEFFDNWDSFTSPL
Conditions: Fluorescence at 25 C (Cary-Varian spectrofluorimeter); buffer, salt and pH not given (as in ref 13).

The next data set deals with T3, MAD8 (UniProt Q9TTA5).
T3 sequence (Q9TTA5 whole entry, looked up): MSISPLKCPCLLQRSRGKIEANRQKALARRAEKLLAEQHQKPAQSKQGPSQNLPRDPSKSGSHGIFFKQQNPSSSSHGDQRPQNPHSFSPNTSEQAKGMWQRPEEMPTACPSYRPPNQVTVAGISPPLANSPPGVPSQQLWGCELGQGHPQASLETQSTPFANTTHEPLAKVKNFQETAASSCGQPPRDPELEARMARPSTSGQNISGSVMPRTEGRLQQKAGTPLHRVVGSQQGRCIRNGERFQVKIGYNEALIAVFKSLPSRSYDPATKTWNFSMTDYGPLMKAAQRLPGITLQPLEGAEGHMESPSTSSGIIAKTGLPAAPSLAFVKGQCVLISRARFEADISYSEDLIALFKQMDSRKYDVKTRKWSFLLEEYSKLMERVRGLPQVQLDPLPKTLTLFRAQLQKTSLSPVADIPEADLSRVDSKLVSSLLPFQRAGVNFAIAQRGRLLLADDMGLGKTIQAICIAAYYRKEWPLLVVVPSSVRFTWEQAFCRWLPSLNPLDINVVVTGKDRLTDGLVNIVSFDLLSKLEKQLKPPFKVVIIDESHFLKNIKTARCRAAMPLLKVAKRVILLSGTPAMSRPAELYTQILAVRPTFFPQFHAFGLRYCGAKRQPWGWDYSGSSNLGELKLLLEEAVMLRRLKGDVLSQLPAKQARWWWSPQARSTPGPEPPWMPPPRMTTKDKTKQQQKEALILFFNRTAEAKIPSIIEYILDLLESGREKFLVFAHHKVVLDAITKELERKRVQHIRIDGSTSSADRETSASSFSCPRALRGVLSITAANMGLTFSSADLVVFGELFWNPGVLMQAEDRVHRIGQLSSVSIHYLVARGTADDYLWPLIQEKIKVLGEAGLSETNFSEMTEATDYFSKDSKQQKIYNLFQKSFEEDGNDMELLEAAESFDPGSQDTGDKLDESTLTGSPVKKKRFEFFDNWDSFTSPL
As to conditions: Fluorescence at 25 C (Cary-Varian spectrofluorimeter); buffer, salt and pH not given (as in ref 13).

The target in a further data set is T4, MAD33 (UniProt Q9TTA5).
T4 sequence (Q9TTA5 whole entry, looked up): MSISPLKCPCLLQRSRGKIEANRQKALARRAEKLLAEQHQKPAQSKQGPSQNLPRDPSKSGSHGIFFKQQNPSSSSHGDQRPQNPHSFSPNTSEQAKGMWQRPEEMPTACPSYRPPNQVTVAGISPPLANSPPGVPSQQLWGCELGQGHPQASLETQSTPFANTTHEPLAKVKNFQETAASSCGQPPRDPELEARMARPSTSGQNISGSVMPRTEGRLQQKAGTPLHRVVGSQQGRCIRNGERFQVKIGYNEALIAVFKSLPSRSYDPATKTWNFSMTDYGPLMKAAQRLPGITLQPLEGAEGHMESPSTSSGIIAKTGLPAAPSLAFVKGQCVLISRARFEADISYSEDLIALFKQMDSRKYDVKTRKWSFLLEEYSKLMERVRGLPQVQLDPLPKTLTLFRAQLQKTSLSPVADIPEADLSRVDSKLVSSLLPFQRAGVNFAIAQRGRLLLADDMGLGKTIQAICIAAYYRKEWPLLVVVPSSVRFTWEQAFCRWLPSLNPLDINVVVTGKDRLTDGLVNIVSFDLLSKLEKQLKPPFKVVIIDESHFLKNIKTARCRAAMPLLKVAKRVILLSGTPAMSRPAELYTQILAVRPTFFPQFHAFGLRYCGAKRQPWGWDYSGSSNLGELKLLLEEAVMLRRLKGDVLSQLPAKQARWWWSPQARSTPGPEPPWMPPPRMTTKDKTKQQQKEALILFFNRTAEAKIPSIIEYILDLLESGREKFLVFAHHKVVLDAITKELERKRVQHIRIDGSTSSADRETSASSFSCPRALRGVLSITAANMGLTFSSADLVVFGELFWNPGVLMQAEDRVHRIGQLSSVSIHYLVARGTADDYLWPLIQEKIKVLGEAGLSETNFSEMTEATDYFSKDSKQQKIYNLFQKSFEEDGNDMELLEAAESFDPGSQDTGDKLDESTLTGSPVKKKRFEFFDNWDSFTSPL
Conditions: Fluorescence at 25 C (Cary-Varian spectrofluorimeter); buffer, salt and pH not given (as in ref 13).

For data set [1], the target named is T5, His-ADAAD (Active DNA-dependent ATPase A Domain) (UniProt Q9TTA5).
T5 sequence (Q9TTA5 whole entry, looked up): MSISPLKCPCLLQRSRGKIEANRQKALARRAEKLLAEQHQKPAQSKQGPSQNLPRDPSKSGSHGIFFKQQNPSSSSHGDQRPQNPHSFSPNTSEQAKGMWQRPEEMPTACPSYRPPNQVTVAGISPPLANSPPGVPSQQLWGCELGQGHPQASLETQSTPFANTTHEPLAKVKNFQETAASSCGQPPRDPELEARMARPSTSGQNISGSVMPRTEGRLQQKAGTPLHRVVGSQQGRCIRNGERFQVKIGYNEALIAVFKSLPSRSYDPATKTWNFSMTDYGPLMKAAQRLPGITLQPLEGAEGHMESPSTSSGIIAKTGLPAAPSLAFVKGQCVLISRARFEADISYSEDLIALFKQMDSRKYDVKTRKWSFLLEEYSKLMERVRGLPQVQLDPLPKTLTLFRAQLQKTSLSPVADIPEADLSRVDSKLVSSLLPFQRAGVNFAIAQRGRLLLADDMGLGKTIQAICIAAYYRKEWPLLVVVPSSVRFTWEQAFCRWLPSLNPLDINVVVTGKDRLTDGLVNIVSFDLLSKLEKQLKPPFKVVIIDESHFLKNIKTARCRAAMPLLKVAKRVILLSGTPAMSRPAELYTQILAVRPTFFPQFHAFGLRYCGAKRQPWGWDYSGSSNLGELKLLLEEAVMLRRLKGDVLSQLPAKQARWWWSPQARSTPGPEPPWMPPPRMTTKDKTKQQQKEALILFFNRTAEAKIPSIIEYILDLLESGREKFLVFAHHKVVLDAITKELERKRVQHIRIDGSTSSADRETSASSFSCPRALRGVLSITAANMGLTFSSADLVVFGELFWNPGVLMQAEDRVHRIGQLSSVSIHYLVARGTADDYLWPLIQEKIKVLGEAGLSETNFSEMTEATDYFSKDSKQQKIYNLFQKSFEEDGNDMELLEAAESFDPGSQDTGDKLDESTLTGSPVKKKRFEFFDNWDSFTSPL
Conditions: Fluorescence at 25 C (Cary-Varian spectrofluorimeter), buffer, salt and pH not given (as in ref 13).

Another data set has as its target T6, MAD28 (UniProt Q9TTA5).
T6 sequence (Q9TTA5 whole entry, looked up): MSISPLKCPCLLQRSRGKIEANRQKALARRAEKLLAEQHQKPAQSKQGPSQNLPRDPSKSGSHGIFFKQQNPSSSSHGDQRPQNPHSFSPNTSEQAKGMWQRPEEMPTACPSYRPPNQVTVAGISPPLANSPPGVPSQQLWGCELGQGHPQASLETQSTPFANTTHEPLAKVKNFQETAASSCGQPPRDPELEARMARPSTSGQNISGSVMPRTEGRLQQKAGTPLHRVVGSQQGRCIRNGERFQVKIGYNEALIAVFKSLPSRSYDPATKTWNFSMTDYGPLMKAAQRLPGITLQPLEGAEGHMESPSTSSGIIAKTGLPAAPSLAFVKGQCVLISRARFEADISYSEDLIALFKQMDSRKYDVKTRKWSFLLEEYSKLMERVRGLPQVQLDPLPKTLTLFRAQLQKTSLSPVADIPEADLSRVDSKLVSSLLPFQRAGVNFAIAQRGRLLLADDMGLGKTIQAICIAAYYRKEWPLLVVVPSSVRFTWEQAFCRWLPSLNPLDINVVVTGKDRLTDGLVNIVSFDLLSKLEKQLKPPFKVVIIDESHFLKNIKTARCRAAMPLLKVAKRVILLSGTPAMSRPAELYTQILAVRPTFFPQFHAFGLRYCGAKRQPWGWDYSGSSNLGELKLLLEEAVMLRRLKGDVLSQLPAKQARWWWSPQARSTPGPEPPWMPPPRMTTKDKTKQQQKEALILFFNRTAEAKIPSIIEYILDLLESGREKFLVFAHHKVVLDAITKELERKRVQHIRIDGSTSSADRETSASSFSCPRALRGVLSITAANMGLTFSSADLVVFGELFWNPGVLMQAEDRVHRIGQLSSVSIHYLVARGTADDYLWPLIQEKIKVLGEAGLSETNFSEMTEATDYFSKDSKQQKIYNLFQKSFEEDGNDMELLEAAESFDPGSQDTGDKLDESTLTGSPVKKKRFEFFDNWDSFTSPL
Conditions: Fluorescence at 25 C (Cary-Varian spectrofluorimeter); buffer, salt and pH not given (as in ref 13).

We go through one sequence from PMC3509132, “Global Epigenetic Changes Induced by SWI2/SNF2 Inhibitors Characterize Neomycin-Resistant Mammalian Cells” (PLoS ONE, 2012).

As a reminder, the Kd is the equilibrium constant for the complex coming apart.

With “GCGCAATTGCGCTCGACGATTTTTTAGCGCAATTGCGC [slDNA (stem-loop DNA)]”, the Kd came out at 8.2 nM in the data set with MAD53; 6.5 nM in the data set with MAD47; 8.7 nM with MAD8; 41.5 nM with MAD33; 0.46 nM in data set [1] (2 uM ADAADiK); 0.63 nM in data set [1] (2 uM ADAADiN (saturating inhibitor)). In addition, the Kd with MAD28 turned out to be 22.1 nM.
